This test addresses T1, GFP-p73α wild type, O15350.
T1 chain: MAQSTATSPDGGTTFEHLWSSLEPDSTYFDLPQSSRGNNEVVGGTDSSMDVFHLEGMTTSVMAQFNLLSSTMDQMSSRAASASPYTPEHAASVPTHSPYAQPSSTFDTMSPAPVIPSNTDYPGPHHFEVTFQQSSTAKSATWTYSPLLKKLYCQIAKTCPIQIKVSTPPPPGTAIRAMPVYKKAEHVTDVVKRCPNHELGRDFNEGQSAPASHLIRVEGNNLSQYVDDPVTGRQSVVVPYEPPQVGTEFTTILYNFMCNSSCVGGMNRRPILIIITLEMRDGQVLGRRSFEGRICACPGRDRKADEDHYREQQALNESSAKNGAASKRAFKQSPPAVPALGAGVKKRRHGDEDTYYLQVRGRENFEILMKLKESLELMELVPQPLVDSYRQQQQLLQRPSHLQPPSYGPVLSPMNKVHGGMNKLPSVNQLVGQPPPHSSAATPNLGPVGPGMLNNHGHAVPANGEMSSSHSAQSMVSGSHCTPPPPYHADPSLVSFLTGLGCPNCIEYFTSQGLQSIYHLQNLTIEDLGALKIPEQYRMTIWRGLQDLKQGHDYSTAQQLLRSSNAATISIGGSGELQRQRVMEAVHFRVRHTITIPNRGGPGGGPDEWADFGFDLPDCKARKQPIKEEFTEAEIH
The test can be described thus: cross-linking. Conditions: remark: other sources report otherwise.

B1: GFP-p73α wild type, O15350-1 1-636 (natural protein)
chain: T1 chain
As usually defined, the stoichiometry N is the number of molecules, sites or subunits per partner or assembly. B1 yielded a stoichiometry N of 4.

For the origin of these results see article PMC3760020.
